Source: the nanobody polyreactivity screen of Harvey et al. (2022)

assay: yeast display, Sf9 membrane polyspecificity reagent, FACS + sequencing; frameworks hold sequencing errors
Method in brief: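 Nanobodies came from a synthetic yeast display library in Saccharomyces cerevisiae BJ5465, induced with galactose for 36–48 hours and stained for 1 hour at 4 °C with 10% biotinylated, detergent-solubilized Sf9 membrane reagent. Cells were enriched on streptavidin microbeads and then FACS-sorted, with low and high (top ~1%) gates set on anti-HA fluorescence for expression and streptavidin fluorescence for reagent binding. Each polyreactivity label reflects the gate a clone came from. Genes were amplified by colony PCR, sequenced by MiSeq 2 × 250 and filtered by CDR length.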

| Sequence | polyreactivity (PSR sort gate) |
| --- | --- |
| QVQLVESGGGLVQAGGSLRLSCAASGNTFYYAKAWYRQAPGKERELVASIRTGGSTNYADSVKGRFTISRDNAKNTVYLQMNSLKPEDTAVYYCNRDGTYTHTGWDYWRPYEYWGQGTQVTVSS | low polyreactivity |
| QVQLVESGGGLVQAGGSLRLSCAASGNTFYYNAMGWYRQAPGKEREFVATITESGTSTYYADSVKGRFTISRDNAKNTVYLQMNSLKPEDTAVYYCAAQYWYVGGIAWYDYWGQGTQVTVSS | low polyreactivity |
| QVQLVESGGGLVQAGGSLRLSCAASGNTFYYYAMGWYRQAPGKERELVASITSTARTYYADSVKGRFTISRDNAKNTVYLQMNSLKPEDTAVYYCNAKEHYATRSDSWGEGTQVTVSS | high polyreactivity |
| QVQLVESGGGLVQAGGSLRLSCAASGNTIFPSTMGWYRQAPGKEREFVAAMTWSGVSTYYADSVKGRFTISRDNAKNTVYLQMNSLKPEDTAVYYCAARGPVYVSYPRQYGYWGQGTQVTVSS | high polyreactivity |
| QVQLVESGGGLVQAGGSLRLSCAASGNTIIRYAMGWYRQAPGKERELVAAISYSGGRTYYADSVKGRFTISRDNAKNTVYLQMNSLKPEDTAVYYCAARYYPSGYRKKMYYWGQGTQVTVSS | high polyreactivity |
| QVQLVESGGGLVQAGGSLRLSCAASGNTITFNTMAWYRQAPGKEREVVAVISRSGGSTYYADSVKGRFTISRDNAKNTVYLQMNSLKPEDTAVYYCAATGFSYRYFQTRDYWGQGTQVTVSS | high polyreactivity |
| QVQLVESGGGLVQAGGSLRLSCAASGNTITWNTMGWYRQAPGKERELVAVITSDGSTYYADSVKGRFTISRDNAKNSVYLQMNRLKPEDTSVYYCNALCAEWYPEEDYWGQGTQVTVSS | low polyreactivity |
| QVQLVESGGGLVQAGGSLRLSCAASGNTLDAYAMGWYRQAPGKERELVASITYRGGSTYYADSVKGRFTISRDNAKNTVYLQMNSLKPEDTAVYYCAAAYQKSPITPKMDYWGQGTQVTVSS | low polyreactivity |
| QVQLVESGGGLVQAGGSLRLSCAASGNTLDAYTLGWDRQAPGKERELVAAISRGGTRTYYADSLKGRFTISRDNAKNTVYLQMKSLKPEDTAVYSCAAKVGYTHEYGRYDYWGQGTQVTVSS | high polyreactivity |
| QVQLVESGGGLVQAGGSLRLSCAASGNTLIQYAMGWYRQAPGKERELVAGISGSDDSTYYADSVKGRFTISRDNAKNTVYLQMNSLKPEDTAVYYCAAQVDRWKGREHDYWGQGTQVTVSS | low polyreactivity |
| QVQLVESGGGLVQAGGSLRLSCAASGNTLRPNGMGWYRQAPGKERELVAAISSGGSPYYADSVKGRFTISRDNAKNTVYLQMNSLKPEDTAVYYCAAEYWYDYWGQGTQVTVSS | low polyreactivity |
| QVQLVESGGGLVQAGGSLRLSCAASGNTYPVYAMGWYRHASGQERELDATITSGGSTNYADSVKGRFTLSRDNAKTSVYYQMNSLSPEDTAVYYCARRAVYSKRRYDYWGQGTQVTVSS | low polyreactivity |
| QVQLVESGGGLVQAGGSLRLSCAASGPIFFINAMGSYRQAPGKEREFLATISWSGGSTYYADSVKGRFTISRDNAKNTVYLQMNSLKPEDTAVYYCNAETYGSRWRRQYGYWGQGTQVTVSS | high polyreactivity |
| QVQLVESGGGLVQAGGSLRLSCAASGPIFRGYAMGWYRQAPGKERELVARITSGGRTYYADSVKGRFTISRDNAKNTVYLQMNSLKPEDTAVYYCATVGRGYDERHNYWGQGTQVTVSS | high polyreactivity |
| QVQLVESGGGLVQAGGSLRLSCAASGPTFRYYAMGWYRQAPGKERELVATITGSGGSTYYADSVKGRFTISRDNAKNTVYLQMNSLKPEDTAVYYCNARKVRYPYRWYDYWGQGTQVTVSS | high polyreactivity |
| QVQLVESGGGLVQAGGSLRLSCAASGPTFSKANAMGWYRQAPVKERELVAAITDGGSTYADSVKGRFTISRDNAKNTVYLQINSLKPEDTAVYYCAKDTEVFYDASYDYWGQGTQVTVSS | low polyreactivity |
| QVQLVESGGGLVQAGGSLRLSCAASGPTFYEYAMGWYRQAPGKERELVARITRGGSTYYADSVKGRFTISRDNAKNTVYLQMNSLKPEDTAVYYCAAPYKDLYPYYEYDYWGHGTQVTVSS | low polyreactivity |
| QVQLVESGGGLVQAGGSLRLSCAASGPTFYRYAMGRYRQAPGKERELVAAISASGGSTYYADSVKGRFTISRDNAKNTVYLQMNSLKPEDTAVYYCAARGWYSLYEFYYWGQGTQVTVSS | high polyreactivity |
| QVQLVESGGGLVQAGGSLRLSCAASGPTNAMGWYRQAPGKERELVAAITKSGGSTYYADSVKGRFTISRDNAKNTVYLQMNSLKPEDTAVYYCALILRHTAYYYWGQGTQVTVSS | high polyreactivity |
| QVQLVESGGGLVQAGGSLRLSCAASGRFFGRHAMGWYRQAPGKERELVAVISKRGSSTSYADSVKGRFTISRDNAKNTVYLQMNSLKPEDTAVYYCNVFRVAYYATSTYGYDYWGQGTQVTVSS | high polyreactivity |
| QVQLVESGGGLVQAGGSLRLSCAASGRFLWYNAMGWYRQAPGTERELVAAITRGGSTHYADSVKGRFTLSRDNAKNTVYLQMNSLKPEDTAVYYCAVSYRSFPYYWERYYSWGQGTQVTVSS | high polyreactivity |
| QVQLVESGGGLVQAGGSLRLSCAASGRICDSYTMGWYRQAPGKERELVAAISRGGGSTYYADSVKGRFTISRDNAQNTVYLQMNSLKPEDTAVYYCAASSYLNSRFKFDYWGQGTQVTVSS | low polyreactivity |
| QVQLVESGGGLVQAGGSLRLSCAASGRICINDMGWYRQAPGKERELVAAIRSDGSTNYADSVKGRFTISRDNAKNTVYLQMNSLKPEDTAVYYCNVDGYYLFVRGYEYWGQGTQVTVSS | low polyreactivity |
| QVQLVESGGGLVQAGGSLRLSCAASGRIFAAYAMGWYRQAPGKERELVASISRGGSTNYADSVKGRFTISRDNAKNTVYLQMNSLKPEDTAVYYCAARQGSTYYAYYYWGQGTQVTVSS | high polyreactivity |
| QVQLVESGGGLVQAGGSLRLSCAASGRIFAGYAMGWYRQAPGKERELVATISSGGSTYYADSVKGRFTISRDNAKNTVYLQMNSLKPEDTAVYYCAAEYGTRQYSSYYKLFNYWGQGTQVTVSS | low polyreactivity |
| QVQLVESGGGLVQAGGSLRLSCAASGRIFAGYGMGWYRQAPGKARELVAAISSGGSTYYADSVKGRFTISRDNAKNTVYLQMNSLKPEDTAVYYCATDGQSVPDDYYQNVDYDYWGQGTQLTVSS | low polyreactivity |
| QVQLVESGGGLVQAGGSLRLSCAASGRIFAGYVMGWYRQAPGKERELVAAISGSGASTYYADSVKGRFTISRDNAKNTVYLQMNSLKPEDTAVYYCAADKPGIFSRFDYWGQGTQVTVSS | low polyreactivity |
| QVQLVESGGGLVQAGGSLRLSCAASGRIFAHNAMGWYRQAPGKERELVAAISGTGGRTYYADSVKGRFTISRDNAKNTVYLQMNSLKPEDTAVYYCARRPTHRTGVLDWEYDYWGQGTQVTVSS | low polyreactivity |
| QVQLVESGGGLVQAGGSLRLSCAASGRIFAKYAMGWSRQAPGTERELVAAISWRGGRTYYADSVKGRFTISRDNAKNTVYLQMNSLKPEDTAVYYCNAVGSRAYVASAWTQMDYWGQGTQVTVSS | high polyreactivity |
| QVQLVESGGGLVQAGGSLRLSCAASGRIFALYAMGWYRQAPGKERELVAAISGGGGSTYYADSVKGRFTISRDNAKNSVYLQMNSLKPEDTAVYYCAARGLSGSSVKYGYWGQGTQVTVSS | high polyreactivity |
